# Assay results reported in patent US7202050.
# T1: TMR-Asp-Glu-Ser-Glu-Glu-Glu-Asp-Lys(Nε-Flsn)-COOH reporter peptide (casein kinase II substrate peptide), unphosphorylated (not fully specified)
# T1 chain: DESEEEDK
# B1: Human casein kinase II (CKII) (protein)
# chain: MSGPVPSRARVYTDVNTHRPREYWDYESHVVEWGNQDDYQLVRKLGRGKYSEVFEAINITNNEKVVVKILKPVKKKKIKREIKILENLRGGPNIITLADIVKDPVSRTPALVFEHVNNTDFKQLYQTLTDYDIRFYMYEILKALDYCHSMGIMHRDVKPHNVMIDHEHRKLRLIDWGLAEFYHPGQEYNVRVASRYFKGPELLVDYQMYDYSLDMWSLGCMLASMIFRKEPFFHGHDNYDQLVRIAKVLGTEDLYDYIDKYNIELDPRFNDILGRHSRKRWERFVHSENQHLVSPEALDFLDKLLRYDHQSRLTAREAMEHPYFYTVVKDQARMGSSSMPGGSTPVSSANMMSGISSVPTPSPLGPLAGSPVIAAANPLGMPVPAAAGAQQ
# Molecular target: T1, TMR-Asp-Glu-Ser-Glu-Glu-Glu-Asp-Lys(Nε-F …)
protein,measurement,value
B1,"phosphorylation of the peptide by CKII, HPLC analysis",Phosphorylation of the peptide by CKII was confirmed by incubation of the peptide with kinase
